From patent US20170319655A1 come the findings set out here.

Test [1] has as its target flagellin on flagellin-expressing Pseudomonas aeruginosa wild type bacteria (Pseudomonas aeruginosa). Description: cell-based or functional assay.
Test [2] has as its target MUC1-ED on Ad-NEU1-infected airway epithelial cells (A549 cells; SAECs), desialylated by overexpressed NEU1 (human) (UniProt P15941). Kind of test: cell-based or functional assay.

A value given as a limit tells only on which side of the number the result lay.

In test [1], “desialylated shed MUC1-ED from culture supernates of Ad-NEU1-infected A549 cells (from UniProt P15941 24-1158) (receptor)” came in with an MUC1-ED concentrations capable of inhibiting Pa adhesion in vitro of less than 0.63 µg/mL and a reduction of Pa adhesion to A549 monolayers, against MUC1-ED from Ad-GFP-infected ECs of 65%. In test [2], “flagellin on flagellin-expressing Pseudomonas aeruginosa wild type bacteria (ligand)” gave a Pa adhesion to Ad-NEU1-infected A549 cells (CFUs bound), against Ad-GFP-infected ECs of 2 fold and a Pa adhesion to Ad-NEU1-infected SAECs (CFUs bound), against Ad-GFP-infected SAECs of 3.4 fold. On to “E. coli-expressed deglycosylated MUC1-ED (from E. coli transformed with pMUC1) (from UniProt P15941 24-1097) (receptor)”, for which, in test [1], the reduction of Pa adhesion to A549 monolayers, against the empty vector control amounted to 93%.

As for “shed MUC1-ED from culture supernates of flagellin-stimulated A549 cells (from UniProt P15941 24-1158) (receptor)”, the MUC1-ED concentrations capable of inhibiting Pa adhesion in vitro in test [1] was less than 0.63 µg/mL. As for “desialylated MUC1-ED in bronchoalveolar lavage fluids (BALFs) from Pa-colonized patients (from UniProt P15941 24-1158) (receptor)”, in test [1], the inhibition of Pa adhesion to A549 cells, against BALFs from noncolonized subjects is 52.9% and the inhibition of Pa adhesion to A549 cells, against BALFs from patients colonized with nonPa microorganisms worked out at 42.1%. The substance “MUC1-ED from supernates of airway ECs cultured with the O-glycosylation inhibitor GalNAc-O-bn (from UniProt P15941 24-1158) (receptor)” displayed a reduction of Pa adhesion to A549 monolayers, against its control in test [1] of 88%.
